Tests used:
[1] = target: cof2_human CFL2 (UniProt Q9Y281)
[2] = target: cap2_human CAP2 (UniProt P40123)
[3] = target: pnma1_human PNMA1 (UniProt Q8ND90)
[4] = target: TMEM239, Q8WW34-2
[5] = target: ldaf1_human LDAF1 (UniProt Q96B96)
[6] = target: reep6_human REEP6 (UniProt Q96HR9)
[7] = target: shlb1_human SH3GLB1 (UniProt Q9Y371)
[8] = target: praf1_human RABAC1 (UniProt Q9UI14)
[9] = target: dtx2_human DTX2 (UniProt Q86UW9)
[10] = target: tfp11_human TFIP11 (UniProt Q9UBB9)
[11] = target: AGTRAP, Q6RW13-2
[12] = target: CMTM5, Q96DZ9-2
[13] = target: UBQLN1, Q9UMX0-2
[14] = target: trip6_human TRIP6 (UniProt Q15654)
[15] = target: lzts2_human LZTS2 (UniProt Q9BRK4)
[16] = target: mdfi_human MDFI (UniProt Q99750)
[17] = target: kra32_human KRTAP3-2 (UniProt Q9BYR7)
[18] = target: T1, SYNE4, Q8N205-2
T1 sequence: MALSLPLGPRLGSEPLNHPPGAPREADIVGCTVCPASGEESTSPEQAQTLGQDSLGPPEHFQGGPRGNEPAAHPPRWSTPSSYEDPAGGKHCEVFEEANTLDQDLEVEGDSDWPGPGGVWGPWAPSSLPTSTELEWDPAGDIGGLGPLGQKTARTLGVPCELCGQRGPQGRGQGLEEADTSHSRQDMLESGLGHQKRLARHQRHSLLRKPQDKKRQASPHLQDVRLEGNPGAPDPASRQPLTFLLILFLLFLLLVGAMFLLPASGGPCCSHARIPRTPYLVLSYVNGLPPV

[19] = target: T2, tmm79_human TMEM79 (UniProt Q9BSE2)
T2 sequence: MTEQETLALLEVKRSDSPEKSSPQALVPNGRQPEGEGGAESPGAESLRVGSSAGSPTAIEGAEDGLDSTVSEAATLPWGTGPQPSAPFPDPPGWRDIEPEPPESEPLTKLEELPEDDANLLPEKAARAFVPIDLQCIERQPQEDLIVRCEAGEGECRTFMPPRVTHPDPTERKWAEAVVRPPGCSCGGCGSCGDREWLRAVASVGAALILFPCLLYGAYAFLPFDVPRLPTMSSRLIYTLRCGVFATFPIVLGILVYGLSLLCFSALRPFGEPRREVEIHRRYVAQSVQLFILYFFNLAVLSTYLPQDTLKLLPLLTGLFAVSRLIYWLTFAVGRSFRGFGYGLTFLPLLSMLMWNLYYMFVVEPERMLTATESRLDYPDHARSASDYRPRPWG

[20] = target: T3, smim3_human SMIM3 (UniProt Q9BZL3)
T3 sequence: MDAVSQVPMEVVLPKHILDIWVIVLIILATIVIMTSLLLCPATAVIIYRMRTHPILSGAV

[21] = target: T3, smim3_human SMIM3; remark: listed apart in the source
[22] = target: gsto2_human GSTO2 (UniProt Q9H4Y5)
Sequence of gsto2_human GSTO2 (Q9H4Y5 whole entry): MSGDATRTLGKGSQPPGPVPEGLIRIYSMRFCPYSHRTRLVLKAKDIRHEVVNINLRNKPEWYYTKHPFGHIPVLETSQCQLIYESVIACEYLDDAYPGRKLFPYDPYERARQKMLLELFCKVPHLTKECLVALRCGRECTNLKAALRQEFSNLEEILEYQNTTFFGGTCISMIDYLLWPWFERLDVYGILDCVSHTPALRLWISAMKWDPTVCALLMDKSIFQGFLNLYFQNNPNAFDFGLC

Sequence of CMTM5, Q96DZ9-2 (Q96DZ9 other isoform, or with tags, fused parts or gaps): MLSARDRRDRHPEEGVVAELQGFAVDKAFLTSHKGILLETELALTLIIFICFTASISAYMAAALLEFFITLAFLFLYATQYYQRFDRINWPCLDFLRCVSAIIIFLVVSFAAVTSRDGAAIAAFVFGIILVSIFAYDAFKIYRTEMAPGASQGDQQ
Sequence of shlb1_human SH3GLB1 (Q9Y371 whole entry): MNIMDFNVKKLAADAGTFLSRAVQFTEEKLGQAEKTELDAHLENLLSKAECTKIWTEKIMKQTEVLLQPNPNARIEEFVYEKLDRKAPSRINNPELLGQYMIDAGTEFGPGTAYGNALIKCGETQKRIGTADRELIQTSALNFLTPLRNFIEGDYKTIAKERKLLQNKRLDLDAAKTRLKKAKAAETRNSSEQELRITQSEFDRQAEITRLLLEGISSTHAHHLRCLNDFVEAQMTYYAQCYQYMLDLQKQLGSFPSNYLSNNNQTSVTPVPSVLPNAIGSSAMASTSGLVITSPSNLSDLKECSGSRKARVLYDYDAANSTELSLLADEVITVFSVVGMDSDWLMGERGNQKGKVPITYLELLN
Sequence of AGTRAP, Q6RW13-2 (Q6RW13 other isoform, or with tags, fused parts or gaps): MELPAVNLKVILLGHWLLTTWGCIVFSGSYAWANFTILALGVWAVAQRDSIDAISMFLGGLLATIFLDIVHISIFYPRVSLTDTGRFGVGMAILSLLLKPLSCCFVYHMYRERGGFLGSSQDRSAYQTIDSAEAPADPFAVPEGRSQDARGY
Sequence of pnma1_human PNMA1 (Q8ND90 whole entry): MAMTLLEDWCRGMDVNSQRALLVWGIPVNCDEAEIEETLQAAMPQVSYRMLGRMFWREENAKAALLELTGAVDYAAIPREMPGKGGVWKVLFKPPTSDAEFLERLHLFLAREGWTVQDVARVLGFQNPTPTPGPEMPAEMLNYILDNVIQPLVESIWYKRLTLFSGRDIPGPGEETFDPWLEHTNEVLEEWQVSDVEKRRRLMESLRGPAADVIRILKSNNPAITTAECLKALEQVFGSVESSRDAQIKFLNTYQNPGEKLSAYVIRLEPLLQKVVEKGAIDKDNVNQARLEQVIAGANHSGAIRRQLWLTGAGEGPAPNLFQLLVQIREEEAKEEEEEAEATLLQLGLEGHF
Sequence of reep6_human REEP6 (Q96HR9 whole entry): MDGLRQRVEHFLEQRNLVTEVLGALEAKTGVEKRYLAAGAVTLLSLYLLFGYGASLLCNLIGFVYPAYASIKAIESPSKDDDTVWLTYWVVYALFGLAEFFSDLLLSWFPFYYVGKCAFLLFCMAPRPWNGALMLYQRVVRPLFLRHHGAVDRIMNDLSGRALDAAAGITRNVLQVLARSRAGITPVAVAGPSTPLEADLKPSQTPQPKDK
Sequence of dtx2_human DTX2 (Q86UW9 whole entry): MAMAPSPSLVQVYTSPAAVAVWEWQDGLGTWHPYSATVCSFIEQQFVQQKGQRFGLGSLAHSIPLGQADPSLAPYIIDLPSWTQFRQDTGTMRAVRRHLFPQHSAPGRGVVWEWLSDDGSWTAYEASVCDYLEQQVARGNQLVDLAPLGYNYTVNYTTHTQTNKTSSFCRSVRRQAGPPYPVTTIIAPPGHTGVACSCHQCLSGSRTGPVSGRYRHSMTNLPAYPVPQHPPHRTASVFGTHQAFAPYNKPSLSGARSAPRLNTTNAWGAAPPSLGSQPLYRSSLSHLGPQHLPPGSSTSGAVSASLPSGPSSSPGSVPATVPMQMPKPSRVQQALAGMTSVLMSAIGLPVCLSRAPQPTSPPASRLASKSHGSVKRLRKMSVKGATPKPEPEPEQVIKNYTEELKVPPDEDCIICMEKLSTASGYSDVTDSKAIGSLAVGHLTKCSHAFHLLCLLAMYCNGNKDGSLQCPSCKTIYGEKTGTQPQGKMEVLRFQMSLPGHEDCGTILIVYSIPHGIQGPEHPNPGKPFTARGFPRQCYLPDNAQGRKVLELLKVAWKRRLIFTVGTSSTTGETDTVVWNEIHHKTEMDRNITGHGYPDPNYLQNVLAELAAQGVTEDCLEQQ
Sequence of TMEM239, Q8WW34-2 (Q8WW34 44-195): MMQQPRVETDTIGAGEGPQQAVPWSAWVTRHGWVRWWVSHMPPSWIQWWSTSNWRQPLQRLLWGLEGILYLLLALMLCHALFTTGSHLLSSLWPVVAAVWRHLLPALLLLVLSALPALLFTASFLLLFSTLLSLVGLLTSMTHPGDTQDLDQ
Sequence of tfp11_human TFIP11 (Q9UBB9 whole entry): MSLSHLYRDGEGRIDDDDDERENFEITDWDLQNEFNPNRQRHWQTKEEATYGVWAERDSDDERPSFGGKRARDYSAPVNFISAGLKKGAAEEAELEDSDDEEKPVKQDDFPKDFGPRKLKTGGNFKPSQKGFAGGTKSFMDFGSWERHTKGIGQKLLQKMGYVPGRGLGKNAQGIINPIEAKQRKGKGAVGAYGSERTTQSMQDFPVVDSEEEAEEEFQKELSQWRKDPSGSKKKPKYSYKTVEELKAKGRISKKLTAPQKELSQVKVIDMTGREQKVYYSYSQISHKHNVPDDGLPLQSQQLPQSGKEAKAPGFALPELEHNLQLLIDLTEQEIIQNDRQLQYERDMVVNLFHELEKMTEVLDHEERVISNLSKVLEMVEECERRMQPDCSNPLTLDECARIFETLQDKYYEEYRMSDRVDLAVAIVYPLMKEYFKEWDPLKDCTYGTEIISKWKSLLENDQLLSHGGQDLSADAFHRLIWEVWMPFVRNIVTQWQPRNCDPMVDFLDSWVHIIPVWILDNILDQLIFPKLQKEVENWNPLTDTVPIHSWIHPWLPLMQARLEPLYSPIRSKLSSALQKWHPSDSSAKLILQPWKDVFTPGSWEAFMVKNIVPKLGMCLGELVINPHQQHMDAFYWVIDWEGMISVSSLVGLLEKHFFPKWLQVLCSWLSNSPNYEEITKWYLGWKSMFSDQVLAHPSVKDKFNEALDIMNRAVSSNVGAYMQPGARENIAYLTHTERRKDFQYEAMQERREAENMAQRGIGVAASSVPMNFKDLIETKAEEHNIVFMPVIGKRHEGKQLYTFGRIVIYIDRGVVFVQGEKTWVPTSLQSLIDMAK
Sequence of ldaf1_human LDAF1 (Q96B96 whole entry): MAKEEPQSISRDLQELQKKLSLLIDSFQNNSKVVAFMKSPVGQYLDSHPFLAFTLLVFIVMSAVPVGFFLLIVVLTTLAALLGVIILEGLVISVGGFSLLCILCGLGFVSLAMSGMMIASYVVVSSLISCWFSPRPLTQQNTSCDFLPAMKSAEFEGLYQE
Sequence of UBQLN1, Q9UMX0-2 (Q9UMX0 other isoform, or with tags, fused parts or gaps): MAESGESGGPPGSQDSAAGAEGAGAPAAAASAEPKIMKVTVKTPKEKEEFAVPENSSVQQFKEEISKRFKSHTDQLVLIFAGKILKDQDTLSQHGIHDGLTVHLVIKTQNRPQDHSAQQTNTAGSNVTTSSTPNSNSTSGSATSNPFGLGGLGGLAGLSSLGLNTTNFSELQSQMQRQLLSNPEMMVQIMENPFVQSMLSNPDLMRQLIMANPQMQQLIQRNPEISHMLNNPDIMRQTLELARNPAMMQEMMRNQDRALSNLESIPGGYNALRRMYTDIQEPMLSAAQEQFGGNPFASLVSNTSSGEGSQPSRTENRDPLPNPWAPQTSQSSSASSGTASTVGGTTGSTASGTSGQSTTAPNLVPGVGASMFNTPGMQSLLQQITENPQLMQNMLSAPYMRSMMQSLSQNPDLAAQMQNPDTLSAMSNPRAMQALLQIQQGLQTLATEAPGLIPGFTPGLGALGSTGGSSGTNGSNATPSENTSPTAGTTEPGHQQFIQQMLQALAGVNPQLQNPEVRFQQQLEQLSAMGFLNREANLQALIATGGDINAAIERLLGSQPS
Sequence of Erythroid transcription factor (Homo sapiens), P15976-2 D218G (P15976 other isoform, or with tags, fused parts or gaps D218G): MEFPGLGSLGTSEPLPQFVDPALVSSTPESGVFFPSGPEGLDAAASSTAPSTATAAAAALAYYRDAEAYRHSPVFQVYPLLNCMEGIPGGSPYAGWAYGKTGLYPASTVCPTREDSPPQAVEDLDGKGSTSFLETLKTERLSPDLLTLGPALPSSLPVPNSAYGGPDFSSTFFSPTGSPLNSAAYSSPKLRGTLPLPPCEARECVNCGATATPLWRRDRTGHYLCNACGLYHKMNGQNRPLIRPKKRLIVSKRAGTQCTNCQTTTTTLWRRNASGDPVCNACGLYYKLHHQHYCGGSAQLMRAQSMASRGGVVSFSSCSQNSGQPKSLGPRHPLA
Sequence of Erythroid transcription factor (Homo sapiens), P15976-2 G208R (P15976 other isoform, or with tags, fused parts or gaps G208R): as the sequence (P15976 other isoform, or with tags, fused parts or gaps D218G) above
Sequence of praf1_human RABAC1 (Q9UI14 whole entry): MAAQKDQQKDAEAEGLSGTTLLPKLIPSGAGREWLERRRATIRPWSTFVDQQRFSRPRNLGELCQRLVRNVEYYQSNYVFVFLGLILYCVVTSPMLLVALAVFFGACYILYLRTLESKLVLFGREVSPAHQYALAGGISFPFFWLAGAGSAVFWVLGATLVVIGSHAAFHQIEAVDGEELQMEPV
Sequence of kra32_human KRTAP3-2 (Q9BYR7 whole entry): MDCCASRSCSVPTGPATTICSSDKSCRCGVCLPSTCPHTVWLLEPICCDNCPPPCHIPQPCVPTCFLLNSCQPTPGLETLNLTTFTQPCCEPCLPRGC
Sequence of mdfi_human MDFI (Q99750 whole entry): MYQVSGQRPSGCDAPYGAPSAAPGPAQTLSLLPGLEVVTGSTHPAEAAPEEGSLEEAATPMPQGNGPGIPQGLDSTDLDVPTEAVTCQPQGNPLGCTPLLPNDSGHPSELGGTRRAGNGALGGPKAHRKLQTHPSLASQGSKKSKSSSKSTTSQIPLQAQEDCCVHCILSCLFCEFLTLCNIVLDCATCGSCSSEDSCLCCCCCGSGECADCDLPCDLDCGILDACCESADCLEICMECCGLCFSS

## Actin, cytoplasmic 2 (Homo sapiens) (from UniProt P63261) I122V
[1]
  effect of a mutation on the interaction: disrupting interaction strength
[2]
  effect of a mutation on the interaction: disrupting interaction strength

## Aprataxin (Homo sapiens), Q7Z2E3-7 A198V
[3]
  effect of a mutation on the interaction: with no effect

## Aprataxin (Homo sapiens), Q7Z2E3-7 H228R
[3]
  effect of a mutation on the interaction: disrupting interaction strength

## Aprataxin (Homo sapiens), Q7Z2E3-7 V263G
[3]
  effect of a mutation on the interaction: disrupting interaction strength

## Atypical kinase COQ8A, mitochondrial (Homo sapiens), Q8NI60 E551K
[4]
  effect of a mutation on the interaction: disrupting interaction strength
[5]
  effect of a mutation on the interaction: disrupting interaction strength
[6]
  effect of a mutation on the interaction: disrupting interaction strength
[7]
  effect of a mutation on the interaction: disrupting interaction strength
[8]
  effect of a mutation on the interaction: disrupting interaction strength
[9]
  effect of a mutation on the interaction: disrupting interaction strength
[10]
  effect of a mutation on the interaction: disrupting interaction strength
[11]
  effect of a mutation on the interaction: with no effect
[12]
  effect of a mutation on the interaction: with no effect

## Atypical kinase COQ8A, mitochondrial (Homo sapiens), Q8NI60 G272V
[4]
  effect of a mutation on the interaction: disrupting interaction strength
[5]
  effect of a mutation on the interaction: disrupting interaction strength
[6]
  effect of a mutation on the interaction: disrupting interaction strength
[7]
  effect of a mutation on the interaction: with no effect
[8]
  effect of a mutation on the interaction: disrupting interaction strength
[9]
  effect of a mutation on the interaction: with no effect
[10]
  effect of a mutation on the interaction: disrupting interaction strength
[11]
  effect of a mutation on the interaction: with no effect
[12]
  effect of a mutation on the interaction: with no effect

## Atypical kinase COQ8A, mitochondrial (Homo sapiens), Q8NI60 H80Y
[4]
  effect of a mutation on the interaction: with no effect
[5]
  effect of a mutation on the interaction: with no effect
[6]
  effect of a mutation on the interaction: with no effect
[7]
  effect of a mutation on the interaction: with no effect
[8]
  effect of a mutation on the interaction: with no effect
[9]
  effect of a mutation on the interaction: with no effect
[10]
  effect of a mutation on the interaction: with no effect
[11]
  effect of a mutation on the interaction: with no effect
[12]
  effect of a mutation on the interaction: with no effect

## Atypical kinase COQ8A, mitochondrial (Homo sapiens), Q8NI60 H85Q
[4]
  effect of a mutation on the interaction: with no effect
[5]
  effect of a mutation on the interaction: with no effect
[6]
  effect of a mutation on the interaction: with no effect
[7]
  effect of a mutation on the interaction: with no effect
[8]
  effect of a mutation on the interaction: with no effect
[9]
  effect of a mutation on the interaction: with no effect
[10]
  effect of a mutation on the interaction: with no effect
[11]
  effect of a mutation on the interaction: with no effect
[12]
  effect of a mutation on the interaction: with no effect

## Atypical kinase COQ8A, mitochondrial (Homo sapiens), Q8NI60 R213W
[4]
  effect of a mutation on the interaction: disrupting interaction strength
[5]
  effect of a mutation on the interaction: disrupting interaction strength
[6]
  effect of a mutation on the interaction: disrupting interaction strength
[7]
  effect of a mutation on the interaction: disrupting interaction strength
[8]
  effect of a mutation on the interaction: disrupting interaction strength
[9]
  effect of a mutation on the interaction: disrupting interaction strength
[10]
  effect of a mutation on the interaction: disrupting interaction strength
[11]
  effect of a mutation on the interaction: disrupting interaction strength
[12]
  effect of a mutation on the interaction: disrupting interaction strength

## Atypical kinase COQ8A, mitochondrial (Homo sapiens), Q8NI60 Y514C
[4]
  effect of a mutation on the interaction: with no effect
[5]
  effect of a mutation on the interaction: with no effect
[6]
  effect of a mutation on the interaction: with no effect
[7]
  effect of a mutation on the interaction: with no effect
[8]
  effect of a mutation on the interaction: with no effect
[9]
  effect of a mutation on the interaction: with no effect
[10]
  effect of a mutation on the interaction: with no effect
[11]
  effect of a mutation on the interaction: with no effect
[12]
  effect of a mutation on the interaction: with no effect

## Cytosolic 5'-nucleotidase 3A (Homo sapiens) (from UniProt Q9H0P0) C113R
[13]
  effect of a mutation on the interaction: with no effect

## Cytosolic 5'-nucleotidase 3A (Homo sapiens) (from UniProt Q9H0P0) D137V
[13]
  effect of a mutation on the interaction: with no effect

## Cytosolic 5'-nucleotidase 3A (Homo sapiens) (from UniProt Q9H0P0) F36L
[13]
  effect of a mutation on the interaction: with no effect

## Cytosolic 5'-nucleotidase 3A (Homo sapiens) (from UniProt Q9H0P0) G207R
[13]
  effect of a mutation on the interaction: disrupting interaction strength

## Cytosolic 5'-nucleotidase 3A (Homo sapiens) (from UniProt Q9H0P0) G280R
[13]
  effect of a mutation on the interaction: with no effect

## Erythroid transcription factor (Homo sapiens), P15976-2 D218G
[14]
  effect of a mutation on the interaction: with no effect
[15]
  effect of a mutation on the interaction: with no effect
[16]
  effect of a mutation on the interaction: with no effect
[17]
  effect of a mutation on the interaction: with no effect

## Erythroid transcription factor (Homo sapiens), P15976-2 G208R
[14]
  effect of a mutation on the interaction: with no effect
[15]
  effect of a mutation on the interaction: with no effect
[16]
  effect of a mutation on the interaction: with no effect
[17]
  effect of a mutation on the interaction: with no effect

## Surfactant protein C (Homo sapiens) (from UniProt P11686) H64P
[18]
  effect of a mutation on the interaction: with no effect
[19]
  effect of a mutation on the interaction: with no effect
[20]
  effect of a mutation on the interaction: causing an interaction
[21]
  effect of a mutation on the interaction: with no effect

## Surfactant protein C (Homo sapiens) (from UniProt P11686) P30L
[18]
  effect of a mutation on the interaction: with no effect
[19]
  effect of a mutation on the interaction: with no effect
[20]
  effect of a mutation on the interaction: causing an interaction
[21]
  effect of a mutation on the interaction: with no effect

## Transcription factor AP-2-alpha (Homo sapiens), P05549-5 G256E
[22]
  effect of a mutation on the interaction: with no effect

## Transcription factor AP-2-alpha (Homo sapiens), P05549-5 R248W
[22]
  effect of a mutation on the interaction: with no effect

## Transcription factor AP-2-alpha (Homo sapiens), P05549-5 R249G
[22]
  effect of a mutation on the interaction: with no effect

From IntAct's records for PubMed 25910212
